# Test results: the DeepSol protein solubility set
# Test: soluble on expression in E. coli; label from the status in PepcDB or PDB records
row,Sequence,soluble on expression in E. coli
1,MAHHHHHHMEENNQVEKNKGTNQLCFVKMLVNNLVAGSVIGKNGSIITSIENKTGCSLKLSPTNSYFPNTQERVLVLCGKQEQINNALLIILDKIRQITVQSFQDKQNMNTVPKYTCRIVIPKSAASAIIGKGGQQIKQLQDSTGAKIQISSREDGLNERIISIIGPFESISDTAIKVTNSIQNDPNLKDLLNVIYNKDTNMNGRSSLSQNFVNQVPLNGYVVPQQYGVFQHEQYMDVNMMNSLMRHSRDLFNLPCEISIQIPDEFIGSVIGKNGSRLTNIMNSTGAQIRISRKGELIPGTADRKVRIMGTVAAVHGAHVLLLQRLESVYMQLRTMQVKCDA,soluble
2,GPPPPPGPPPPPGPPPPPGL,soluble
3,MTVDHRQWAREAIRIIEADFQRSADTHLIPLETPGLPGVELYFKDESSHPTGSLKHRLARSLFLYALCNGWLRPAAPVIEASSGSTAISEAYFARLLGLPFIAVMPASTSKEKIAQIAFYGGQSHLVEDPTQIYAESERLARESGGHFMDQFTYAERATDWRANNNIAESIFQQMRHEPYPTPTWLISSPGTGGTLATLGRYVRYRQHCTRVLCADAERSVFFDAYVSGDRGLTLDCGSRIEGIGRPRVEASFLPEVIDAMVKVPDAWSLAAMHYLARRLGRRVGGSSGTNLIGALVAARQMVAAGEKGSLVAILCDGGERYATTYYDPVWLARQGYALEPLVEALAACIERGVALPDGLLVAG,not soluble
4,MGSDKIHHHHHHMPKSVQDDAIEAGTLLSVQGLTVGLPPGMDRRYAVEDMSFDLKAGEILCIIGESGSGKSVTANATMGLLAQSLHIVSGSIMLEGQELVGADAATLRALRGRIVSMIFQDPLSALNPLMTVGDQIAEVMEAHGIGTQQERRARVLDLITEVGLPDPELMQHQYPFRLSGGQRQRVMIAMALALEPKVLIADEPTTALDVTTQAQILELIASIQRRKQMSVMFITHDFGVVAEIADRVIVMEKGHVVEQGSASVVLKSPDHPYTQRLIAAVPRMRASDRENEADTPVVLEARNLCKTYGTGSGFLSKGRVIKAVDDVSFTIAKGRTLGIVGESGSGKSSLGRLLVKLMNSDSGEILFGGRDIAPLSEEAFRSMRPYIQMIFQDPFASLNPRQTIGRILTVGPVAQATPIHEARTRAMRLLERVGLDAGAYDRYPHEFSGGQRQRIGIARALMFNPMLIVADEAVSALDVSIQAQILQLLTEVQQEMKLAMAFITHDLRVASQICDEIAVMYKGRIVEYGPPSQIFRNPTHDYTRQLVSAIPGTEWEPAVMV,not soluble
5,MSSIEWNEKTFAKFAYLSDPRTKGELVAYVLTKANLKDNKYENTIVIENLKNNARRFIENATMPRISPDGKKIAFMRANEEKKVSEIWVADLETLSSKKILEAKNIRSLEWNEDSRKLLIVGFKRREDEDFIFEDDVPAWFDDLGFFDGEKTTFWIFDTESEEVIEEFEKPRFSSGIWHRDKIVVNVPHREIIPQYFKFWDIYIWEDGKEEKMFEKVSFYAVDSDGERILLYGKPEKKYMSEHNKLYIYDGKEVMGILDEVDRGVGQAKIKDGKVYFTLFEEGSVNLYIWDGEIKPIAKGRHWIMGFDVDEIVVYLKETATRLRELFTWDGEEKQLTDYNDPIFAKL,soluble
6,MSQKRSLVFAIRDFPPGCGTHIDVSSSLNHPAEKAFKHPRTGDVSGENLSFAEAKPEGTCLKRESADQDHIFAAPEHNAKREPAGQDHVVAATTVAYATSSHRQKVEIGNSDCDPTPREKVLEVLSLFKQVYNQLDRDKKARRGGDFLDATSRIDLKTLTVLEKMGKQVNTEKRIGSVPGINIGDVFQYKTELRVVGLHSKPMCGIDYIKLGDDRITTSIVASEGYGYNDTYNSGVMVYTGEGGNVINKQKKTEDQKLVKGNLALATSMRQKSQVRVIRGEERLDRKGKRYVYDGLYMVEEYWVERDVRGKSVYKFKLCRIPGQLPLT,not soluble
7,MKKTFNLVATAAAGIEAVVGKELRNLGLDCQVENGRVLFKGNIETIAKSNLWLRSADRIKIVVGEFPARTFEELFQGVYALDWENYLPLGCQFPVAKAKSVKSKLHNEPSIQGITKKAIVKKLQHYFHRPDSVPLPENGPEFKIEISLLKDQARVMIDTTGPSLFKRGYRTEKGGAPIKENMAAAIILLSNWFPDKPFVDPTCGSGTFCIEAAMIGMNIAPGFNRDFAFEEWPWVDEALVTRVRNEADEQADYDIQLDISGFDFDGRMVEIARKNAREVGLEDVVKLKQMRLQDFKTNKINGVLISNPPYGERLLDDKAVDILYNEMGETFAPLKTWSQFILTNDTDFEQKFGRKADKKRKLYNGSLKVDLYQFYGQRVKRVLR,soluble
8,MLGNLKPQAPDKILALMGEFRADPRQGKIDLGVGVYKDATGHTPIMRAVHAAEQRMLETETTKTYAGLSGEPEFQKAMGELILGDGLKSETTATLATVGGTGALRQALELARMANPDLRVFVSDPTWPNHVSIMNFMGLPVQTYRYFDAETRGVDFEGMKADLAAAKKGDMVLLHGCCHNPTGANLTLDQWAEIASILEKTGALPLIDLAYQGFGDGLEEDAAGTRLIASRIPEVLIAASCSKNFGIYRERTGCLLALCADAATRELAQGAMAFLNRQTYSFPPFHGAKIVSTVLTTPELRADWMAELEAVRSGMLRLREQLAGELRDLSGSDRFGFVAEHRGMFSRLGATPEQVKRIKEEFGIYMVGDSRINIAGLNDNTIPILARAIIEVGV,soluble
9,MGSDKIHHHHHHMRVAMWSGPRNLSTAMMYAFGNRPDCEAWDEPFYAAYLAQTGLDHPMRQTVLASQPPHYGAVVERLLATPTQPVQYLKLMTHHMLPDTSLTWATGFANIHLIRHPARVIASYTAKRAEITLDDIGFPQAARLHTALPGPIIDSADIRAAPEAMLRSLCEAIDLPFDPAMLHWPAGPKPFDGAWAPHWYDAVHRSTGFAAAEGHLPEVPDHHRGLLKDALDIYETLHQSRLRP,not soluble
10,MRGSHHHHHHTDPALRANSLFASTARGLEELLKTELENLGAVECQVVQGGVHFKGDTRLVYQSLMWSRLASRIMLPLGECKVYSDLDLYLGVQAINWTEMFNPGATFAVHFSGLNDTIRNSQYGAMKVKDAIVDAFTRKNLPRPNVDRDAPDIRVNVWLHKETASIALDLSGDGLHLRGYRDRAGIAPIKETLAAAIVMRSGWQPGTPLLDPMCGSGTLLIEAAMLATDRAPGLHRGRWGFSGWAQHDEAIWQEVKAEAQTRARKGLAEYSSHFYGSDSDARVIQRARTNARLAGIGELITFEVKDVAQLTNPLPKGPYGTVLSNPPYGERLDSEPALIALHSLLGRIMKNQFGGWNLSLFSASPDLLSCLQLRADKQYKAKNGPLDCVQKNYHVAESTPDSKPAMVAEDYTNRLRKNLKKFEKWARQEGIECYRLYDADLPEYNVAVDRYADWVVVQEYAPPKTIDAHKARQRLFDIIAATISVLGIAPNKLVLKTRERQKGKNQYQKLGEKGEFLEVTEYNAHLWVNLTDYLDTGLFLDHRIARRMLGQMSKGKDFLNLFSYTGSATVHAGLGGARSTTTVDMSRTYLEWAERNLRLNGLTGRAHRLIQADCLAWLREANEQFDLIFIDPPTFSNSKRMEDAFDVQRDHLALMKDLKRLLRAGGTIMFSNNKRGFRMDLDGLAKLGLKAQEITQKTLSQDFARNRQIHNCWLITAAGLCGR,soluble
11,MSLKIIILGAGQVGGTLAENLVGENNDITVVDKNADRLRDLQDKYDLRVVNGHASHPDVLREAGAQDADMLVAVTNTDETNMAACQVAFTLFNTPNRIARIRSPQYLAEKEALFQSGAVPVDHLIAPEELVTSYIERLIQYPGALQVVSFAEEKVSLVAVKAYYGGPLVGNALSALRDHMPHIDTRVAAIFRQGRPIRPQGTTIIEADDEVFFVAASNHIRSVMSELQRLEKPYRRIMIVGGGNIGASLAKRLEQTYSVKLIEHNYQRAEQLSEQLENTIVFCGDAADQELLSEENIDQVDVFIALTNEDETNIMSAMLAKRMGAKKAMVLIQRSGYVDLVQGGVIDVAISPQQATISALLTHVRRADIVNVSSLRRGAAEAIEAIAHGDESTSKVVGRAVGDIKLPPGTTIGAIVRGEEVLIAHDRTVIEQDDHVVMFLVDKKYVPDVETLFQPSPFFLEGHHHHHH,soluble
12,RPPKWTGMDVWAAAICFNTVEAAKKNLPKPESWADLTKPVYKGQIVMPHPASSGTGYLDVSAWLQTLGEKKGWDYMDKLHANMAQYVHSGSKPCKMAAAGEYPIGISFEYRGAQLKEKGAPIDLIYPKEGLGWDLEATAIIKGTKNLEAARKLADFSVSLPAMKLYEQNYAVLAMPGV,not soluble
13,KQEVSGQVIYLNRGKSFFAFIKEYLEKETGYKKGVKWNRIALDEVEIITSEMSQARKENIKEAFLDGAVKIIIGTATIREGIDLQRKGTVIYNCYPDWNPTDIRQLEGRIWRQGNE,not soluble
14,MDTRTRHLKVSNCPNNSYALANVAAVSPNDFPNNIYIIIDNLFVFTTRHSNDIPPGTIGFNGNQRTWGGWSLNQDVQAKAFDLFKYSGKQSYLGSIDIDISFRARGKAVSTVFDQDELAKQFVRCYESQIFSPTQYLIMEFQGHFFDLKIRNVQAIDLGDIEPTSAVATGIETKGILTKQTQINFFKGR,soluble
15,MDPSMYPGASATYLSYPQQNASQDYLGAYAAQTTTTTRNTANGSTSSDHLLGDPSSSCSPRETSPSTTSLVLTIRLLMQGKEVGSIIGKKGDQIKKIREESGAKINISDGSCPERIVTITGTLGVIGKAFNMVCNKFEEDMLLLPNSVPKPPITMRVIVPATQCGSLIGKGGSKIKDIREATGASIQVASEMLPHSTERAVTLSGTADAINLATSLKIPGSTKRLHNHIPPKTNVQPIGNRHVSGYNCRTTTTGTGSTATRRGSTYGWRTGTGVQVQQQLVTNALLQQHQFAAVQQELAARAALFNQQLMMPGQQQQASQAQEVYLGQHGLIYTANGVQLGGQDNSKAMEAGAAAAAAAQWQGYDMAAMQQQQQQQQQLLNQYALNQSMLIGAPFMKGGPTPPGTTSGKATSSGASAQGAATSSARFHPY,not soluble
16,SSYNILSQDLLEDNSHLYRHCRRPVLHWSFRFPNILKEIKHFDADVLCLQEVQEDHYGAEIRPSLESLGYHCEYKMRTGRKPDGCAICFKHSKFSLLSVNPVEFFRPDISLLDRDNVGLVLLLQPKIPYAACPAICVANTHLLYNPRRGDIKLTQLAMLLAEISSVAHQKDGSFCPIVMCGDFNSVPGSPLYSFIKEGKLNYEGLPIGKVSGQEQSSRGQRILSIPIWPPNLGISQNCVYEVQQVPKVEKTDSDLTQTQLKQTEVLVTAEKLSSNLQHHFSLSSVY,soluble
17,MSLRMMNKRILKGTLTAIAALMSAHAFAGQEVTVYTAFETDLLAKYKSAFEKENPDIEIKWVRDSTGIMTAKLLAEKDNPRAEVVWGLAGSSMALLKDQGVLKPYTPKGANELRANLNDPQAQQAWYGNDAFFNAVCFNEAVAKQLNLPKPQSWEDLTNPVYKGHIAMPNPASSGTGYMQVSAWLQNMGEDKAWDYMQRLDQNIAHYTHSGSKPCVQAGMGEVAIGISMATRGAKLKTQGAPLDVIVPNGIGWESEAVGLVKESDAAKRVVDWSVSKAANELYIESYPIVGHQDVSKQVPNYPNVEKVMAKMDFTQMGVDRARVLQTWSEKFDAKSEPKEGHHHHHH,soluble
18,MVKVYIHDNKVDSDYRAPHNSGTELSLDELAKLGVIYKYCANEEEVNEIARQREYKNRDVVNICEGSFKSEAEFNEKLATFYQEHLHEDEEIRYCLEGAGYFDVRDASTPENWIRCLVESGDLLILPPGIYHRFTLTTSNHIKALRLFKDEPKWQAINRSNQADSLPVRKDYIALINQY,soluble
